What is called EC50 is the midpoint of the concentration-response curve. High values mean a less potent agent, low ones a more potent agent.

The record followed here is paper PMC9709071.

For series [1], the target named is T1, Recombinant DR3-Fc, Q93038.
T1 chain: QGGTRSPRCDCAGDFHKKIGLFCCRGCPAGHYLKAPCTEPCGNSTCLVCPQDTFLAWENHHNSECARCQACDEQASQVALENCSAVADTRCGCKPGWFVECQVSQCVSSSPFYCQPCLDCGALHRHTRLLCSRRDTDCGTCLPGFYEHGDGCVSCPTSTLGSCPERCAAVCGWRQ
Briefly: ELISA. Conditions: chain shown with the change; value read at the highest DR3-Fc concentration point, about 1000 nM; parent: est. 130; read off a plot. (In general: In an ELISA, binding on a coated surface is turned into a signal by an enzyme label.)

The nature of series [2]: recombinant expression, Expi293. Conditions: glycan lost; control: wild type.
The conditions of series [3]: glycan lost; control: wild type.
In series [4] the target is Fc-His-TL1A (TL1W61) (human). Briefly: ELISA; reversed format: TL1A molecules immobilised, DR3 titrated.

B1: His-TL1A (TL1W2), O95150 C162S (protein)
chain: MAEDLGLSFGETASVEMLPEHGSCRPKARSSSARWALTCCLVLLPFLAGLTTYLLVSQLRAQGEACVQFQALKGQEFAPSHQQVYAPLRADGDKPRAHLTVVRQTPTQHFKNQFPALHWEHELGLAFTKNRMNYTNKFLLIPESGDYFIYSQVTFRGMTSESSEIRQAGRPNKPDSITVVITKVTDSYPEPTQLLMGTKSVCEVGSNWFQPIYLGAMFSLQEGDKLMVNVSDISLVDYTKEDKTFFGAFLL
For the molecule B1, the response (x 10^6 chemiluminescence) in series [1] is 10.

B2: His-TL1A (TL1W2), O95150 C202S (protein)
chain: MAEDLGLSFGETASVEMLPEHGSCRPKARSSSARWALTCCLVLLPFLAGLTTYLLVSQLRAQGEACVQFQALKGQEFAPSHQQVYAPLRADGDKPRAHLTVVRQTPTQHFKNQFPALHWEHELGLAFTKNRMNYTNKFLLIPESGDYFIYSQVTFRGMTSECSEIRQAGRPNKPDSITVVITKVTDSYPEPTQLLMGTKSVSEVGSNWFQPIYLGAMFSLQEGDKLMVNVSDISLVDYTKEDKTFFGAFLL
On to B2, for which the response (x 10^6 chemiluminescence) in series [1] turned out to be 9.

B3: TL1A (TNFSF15): N133Q (protein)
parent chain: MAEDLGLSFGETASVEMLPEHGSCRPKARSSSARWALTCCLVLLPFLAGLTTYLLVSQLRAQGEACVQFQALKGQEFAPSHQQVYAPLRADGDKPRAHLTVVRQTPTQHFKNQFPALHWEHELGLAFTKNRMNYTNKFLLIPESGDYFIYSQVTFRGMTSECSEIRQAGRPNKPDSITVVITKVTDSYPEPTQLLMGTKSVCEVGSNWFQPIYLGAMFSLQEGDKLMVNVSDISLVDYTKEDKTFFGAFLL
As for B3, the expression_or_secretion entry in series [2] is on record as “no change”. In addition, the “other: solubility” value in series [3] is “no change”.

B4: Recombinant DR3-Fc (Fc fusion)
chain: QGGTRSPRCDCAGDFHKKIGLFCCRGCPAGHYLKAPCTEPCGNSTCLVCPQDTFLAWENHHNSECARCQACDEQASQVALENCSAVADTRCGCKPGWFVECQVSQCVSSSPFYCQPCLDCGALHRHTRLLCSRRDTDCGTCLPGFYEHGDGCVSCPTSTLGSCPERCAAVCGWRQ
Molecule B4 came in with an EC50 in series [4] of 2.2 nM.

B5: His-TL1A (TL1W2), O95150 C162L; C202L (protein)
chain: VYAPLRADGDKPRAHLTVVRQTPTQHFKNQFPALHWEHELGLAFTKNRMNYTNKFLLIPESGDYFIYSQVTFRGMTSELSEIRQAGRPNKPDSITVVITKVTDSYPEPTQLLMGTKSVLEVGSNWFQPIYLGAMFSLQEGDKLMVNVSDISLVDYTKEDKTFFGAFLL
Take B5: the response (x 10^6 chemiluminescence) in series [1] amounted to 21.
